Results from patent publication US9938354B2, “Lin28-mediated control of let-7 biogenesis” (Children's Medical Center Corporation, priority 2011, dated 2018).

Legend:
TUTase = molecular target: T1, TUTase (Homo sapiens, UniProt Q5TAX3); experiment: In vitro TUTase activity (uridylation) assay; type: biochemical; conditions: chain terminator; prevents oligo-U tail elongation
T1 construct: Flag; made in house; host or cells: HEK293 / HEK293T cells (transient transfection, anti-Flag M2 purification)
T1 sequence (Q5TAX3 whole entry): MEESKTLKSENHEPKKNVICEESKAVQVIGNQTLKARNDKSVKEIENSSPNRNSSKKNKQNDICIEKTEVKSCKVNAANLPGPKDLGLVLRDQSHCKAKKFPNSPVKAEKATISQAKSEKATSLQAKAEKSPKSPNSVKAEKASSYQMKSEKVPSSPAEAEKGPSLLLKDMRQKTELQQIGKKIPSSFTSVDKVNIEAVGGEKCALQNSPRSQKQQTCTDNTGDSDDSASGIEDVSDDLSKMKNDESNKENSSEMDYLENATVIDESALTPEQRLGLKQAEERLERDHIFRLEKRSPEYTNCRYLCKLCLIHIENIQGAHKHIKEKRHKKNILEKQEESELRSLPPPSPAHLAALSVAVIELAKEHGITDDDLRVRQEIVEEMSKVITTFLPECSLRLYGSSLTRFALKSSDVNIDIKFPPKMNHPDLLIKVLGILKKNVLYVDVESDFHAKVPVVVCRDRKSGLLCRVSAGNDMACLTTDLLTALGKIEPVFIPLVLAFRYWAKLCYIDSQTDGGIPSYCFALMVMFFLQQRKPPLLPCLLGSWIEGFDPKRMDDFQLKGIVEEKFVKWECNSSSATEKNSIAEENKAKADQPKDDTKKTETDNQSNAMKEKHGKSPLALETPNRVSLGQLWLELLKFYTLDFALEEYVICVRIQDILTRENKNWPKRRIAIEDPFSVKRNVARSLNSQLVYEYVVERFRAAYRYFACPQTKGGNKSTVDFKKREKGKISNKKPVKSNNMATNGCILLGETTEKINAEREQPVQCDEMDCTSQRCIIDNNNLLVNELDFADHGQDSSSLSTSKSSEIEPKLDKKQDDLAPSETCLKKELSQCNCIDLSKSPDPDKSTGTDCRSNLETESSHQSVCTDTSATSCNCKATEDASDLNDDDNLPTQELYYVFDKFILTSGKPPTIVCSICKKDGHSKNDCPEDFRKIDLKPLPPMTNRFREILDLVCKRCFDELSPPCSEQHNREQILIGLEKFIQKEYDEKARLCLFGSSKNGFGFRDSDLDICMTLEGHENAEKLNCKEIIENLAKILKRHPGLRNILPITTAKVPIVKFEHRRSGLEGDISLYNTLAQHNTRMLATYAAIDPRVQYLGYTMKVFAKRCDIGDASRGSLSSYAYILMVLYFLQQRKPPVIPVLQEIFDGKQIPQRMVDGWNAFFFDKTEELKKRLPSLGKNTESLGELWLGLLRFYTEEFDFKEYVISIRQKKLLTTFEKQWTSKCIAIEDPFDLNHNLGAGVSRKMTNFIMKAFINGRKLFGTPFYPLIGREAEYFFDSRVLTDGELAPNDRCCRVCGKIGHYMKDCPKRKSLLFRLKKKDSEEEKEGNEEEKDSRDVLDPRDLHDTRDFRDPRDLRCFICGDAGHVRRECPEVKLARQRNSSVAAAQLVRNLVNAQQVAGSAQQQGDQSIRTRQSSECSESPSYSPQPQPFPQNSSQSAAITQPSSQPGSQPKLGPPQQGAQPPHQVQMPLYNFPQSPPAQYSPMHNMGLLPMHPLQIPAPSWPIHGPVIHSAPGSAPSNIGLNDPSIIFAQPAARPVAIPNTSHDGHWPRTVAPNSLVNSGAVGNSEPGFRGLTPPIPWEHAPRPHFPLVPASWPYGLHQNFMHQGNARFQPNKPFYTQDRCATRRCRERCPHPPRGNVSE
Experimental: In vitro TUTase assays can be employed also. Some of the hit compounds may influence Lin28A-TUTase activity independent of altered expression levels. […] For in vitro uridylation assays, synthetic pre-let-7 RNA is incubated with the affinity-purified proteins in the presence of [α-^32P]-UTP.
A pilot screen is performed on the in vitro assay, using a chemical library that contains a collection of nucleotide analogs. The catalytic activity of the TUTase is inhibited by certain nucleotide analogs, and that the identification of these compounds through HTS will lead to their utility as a novel chemotherapeutic in Lin28A-expressing cancers. There are readily available libraries of such compounds; similar compounds have already been applied in the clinic. […] Then, putative hits from this primary screen are evaluated through secondary screens that include dose curves, in vitro TUTase activity assays, and analyses of let-7 expression by q.RT-PCR on compound-treated cells. […]
Purified proteins were incubated with 4 pmol of unlabelled synthetic RNA (Dharmacon) for 1 hour at 37° C. in a 30 μl reaction mixture containing 100 mM KCl, 20 mM Tris-HCl pH 7.6, 10% Glycerol, 125 nM [α-^32P]UTP, 3.2 mM MgCl2, 40 U RNasin ribonuclease inhibitor (Promega). Products were resolved on 15% denaturing polyacrylamide gels and bands were detected by autoradiography.

pre-let-7g = experiment: EMSA of recombinant Lin28A and Lin28B with pre-let-7g; type: binding; conditions: 0.5 nM 5′-end labeled pre-let-7g, without competitor yeast tRNA, estimated, read-out: apparent Kd
Experimental: (§1) Furthermore, Lin28B directly binds and sequesters pri-let-7. To further dissect the mechanism of the Lin28B-mediated let-7 processing block, the relative abilities of recombinant human Lin28A and Lin28B proteins to bind pre-let-7 were compared. (FIG. 7A, 7B and FIG. 8). EMSA was performed with pre-let-7g to analyze the relative binding affinities of the two recombinant proteins. Lin28A and Lin28B have apparent Kds of approximately 0.6 nM and 0.5 nM, respectively (FIG. 7B). Both these estimated Kds are much lower than a previously reported for recombinant mouse Lin28A. This difference is likely due to the omission here of nonspecific yeast tRNA competitor used previously in the binding buffer. Piskounova et al., 2008. […] Collectively, these assays reveal that both Lin28 proteins can directly bind to let-7 precursors with high-affinity in vitro.
(§2) Transformed BL21-CodonPlus® Competent bacteria (Stratagene) were grown to an OD600 nm of 0.4-0.6. […] Band intensities of scanned gels were quantified using ImageJ software and used to calculate percentage of probe bound. […] […] Percent active protein was determined using stoichiometric binding reactions as described in Ryder et al. (2008) Hills equation for specific binding with one site, Y=Bmax*X^h= […]

pri-let-7g = experiment: EMSA of recombinant Lin28A and Lin28B with pri-let-7g; type: binding; conditions: in vitro transcribed uniformly labeled pri-let-7g
Experimental: as §1, §2

Molecule: O=c1ccn([C@H]2CC[C@@H](COP(=O)(O)OP(=O)(O)OP(=O)(O)O)O2)c(=O)[nH]1 [2′,3′-dideoxy-UTP]
- TUTase activity in vitro (TUTase): effectively inhibits TUTase activity in vitro

B1: Lin28A: purified recombinant human His-tagged Lin28A RNA-binding protein (protein, UniProt Q9H9Z2 2-209, looked up)
Protein lin-28 homolog A: GSVSNQQFAGGCAKAAEEAPEEAPEDAARAADEPQLLHGAGICKWFNVRMGFGFLSMTARAGVALDPPVDVFVHQSKLHMEGFRSLKEGEAVEFTFKKSAKGLESIRVTGPGGVFCIGSERRPKGKSMQKRRSKGDRCYNCGGLDHHAKECKLPPQPKKCHFCQSISHMVASCPLKAQQGPSAQGKPTYFREEEEEIHSPTLLPEAQN
modifications: His tag
- Kd (pre-let-7g): ~0.6 nM
- binding to pri-let-7g (pri-let-7g): able to bind pri-let-7g with similar affinities

B2: Lin28B: purified recombinant human His-tagged Lin28B RNA-binding protein (protein)
chain: MAEGGASKGGGEEPGKLPEPAEEESQVLRGTGHCKWFNVRMGFGFISMINREGSPLDIPVDVFVHQSKLFMEGFRSLKEGEPVEFTFKKSSKGLESIRVTGPGGSPCLGSERRPKGKTLQKRKPKGDRCYNCGGLDHHAKECSLPPQPKKCHYCQSIMHMVANCPHKNVAQPPASSQGRQEAESQPCTSTLPREVGGGHGCTSPPFPQEARAEISERSGRSPQEASSTKSSIAPEEQSKKGPSVQKRKKT
modifications: left off: small tags and cut ends
- Kd (pre-let-7g): ~0.5 nM
- binding to pri-let-7g (pri-let-7g): able to bind pri-let-7g with similar affinities
